Experiments:
F22844 lysine oxidase = test: Substrate specificity of F22844 lysine oxidase; assay type: biochemical, Trichoderma sp.; conditions: lysine = 100, L-isomers
T. viride lysine oxidase [1] = conditions: data from Kusakabe et al., 1980; cited from earlier work
[2] = test system: Trichoderma sp. F22844 L-lysine oxidase (Mr 56,000 protein, E.C. 1.4.3.14), native; proprotein SEQ ID NO:46; conditions: read-out: Km for lysine; lysine oxidase from F22844
T. viride lysine oxidase [3] = conditions: read-out: Km for lysine, reported, Kusakabe et al., 1980; cited from earlier work
Mr 50,000 protein = Mr 50,000 protein assay (hydrogen peroxide colorimetric); assay type: biochemical, Trichoderma sp.; conditions: hydrogen peroxide formation monitored
Protocol: Hydrogen peroxide appears to be the byproduct of the Mr 50,000 protein reaction. The formation of hydrogen peroxide was monitored by a colorimetric assay (Gallo, 1981). P2C was prepared by two separate methods for the initial Mr 50,000 protein assay. The two methods used for preparing P2C were
1) L-lysine with lysine oxidase and catalase; and
2) DL-pipecolic acid with D-amino acid oxidase and catalase.
P2C was isolated from the protein mixture by filtration using an Amicon filter (10 kDa cutoff) before using in the Mr 50,000 protein assay.

southern corn rootworm = test: Southern corn rootworm artificial diet bioassay; assay type: in vivo; conditions: for Mean larval wt. (mg) (+SEM) / # of survivors: Table 12, SCRW neonate, T. viride lysine oxidase 10 ppm, E. coli produced Mr 50,000 18 ppm; for Mean larval wt. (mg) (+SEM): buffer 0.68, 0.57; for # of survivors: buffer 51, 52
Protocol: These proteins were then purified by sizing and ion exchange chromatography. […] In both cases, no bioactivity was detected when the proteins were assayed individually but significant stunting was seen when the proteins were combined in assay.
Native-PAGE studies were effective in confirming that the Mr 56,000 and Mr 50,000 proteins were responsible for the southern corn rootworm bioactivity of F22844. The chromatographically purified Mr 56,000 and Mr 50,000 proteins were further purified by native PAGE. […] A sample containing a combination of the two proteins at concentrations of 9.7 μg/mL of Mr 56,000 and 2.5 μg/mL of Mr 50,000 yielded 89% stunting of corn rootworm larvae (Table 3). […]
(§1) These leads were not characterized further. […] Lysine oxidase from Trichoderma viride is available commercially from Sigma (St. Louis, Mo.). The enzyme was purified to a single band from this preparation and bioassayed against southern corn rootworm. Bioassays were conducted to compare the concentration responses of the T. viride lysine oxidase (±Mr 50,000 protein from F22844) with the lysine oxidase purified from F22844. The bioactivity of the T viride lysine oxidase agrees very well with the bioactivity of lysine oxidase from F22844 when bioassayed in the presence of tedanalactam synthase from F22844 (Table 10). Very similar stunting levels are seen at equivalent doses (compare Table 10 to Table 7). In addition, no bioactivity is seen with either lysine oxidase in the absence of tedanalactam synthase from F22844.
An NcoI-HindIII fragment containing the full length tedanalactam synthase cDNA gene (SEQ ID NO:40) from pMON25424 was interested into pMON6235, an E. coli expression vector containing an arabinose inducible promoter and G10 leader sequence to produce pMON25428 (FIG. 12). […] The relative migration of the expressed protein on SDS-PAGE was identical to the F22844 purified tedanalactam synthase. The recombinant tedanalactam synthase was purified in a 5 step procedure from E. coli expressing the tedanalactam synthase gene. Lysine oxidase was purified from a commercial preparation of T. viride lysine oxidase. Both the lysine oxidase and tedanalactam synthase were >95% pure by SDS-PAGE.

corn rootworm = test: Corn rootworm bioassay (species not stated); assay type: in vivo, Diabrotica spp.; conditions: Table 11, yeast recombinant lysine oxidase 14 ppm, F22844 Mr 50,000 10 ppm, alone or combined; for # of survivors: 16 wells/sample, buffer 61, 45; for Mean larval wt. (mg) (±SEM): buffer 0.94, 0.84
Protocol: as §1
(§2) Yeast (Saccharomyces cerevisiae) transformed with pMON25030 were grown in the presence of galactose and shown to produce enzymatically active lysine oxidase. Yeast transformed with pMON25030 had soluble lysine oxidase activity in both disrupted cell pellets and cell free culture media. […] Lysine oxidase from the yeast culture media was subsequently purified and shown to have bioactivity against corn rootworm when combined with tedanalactam synthase.

[4] = test system: southern corn rootworm larvae; test: Diet overlay assay with SCRW; assay type: in vivo; conditions: for Av. Wght: Tris control 2.6
Text: However, ingestion of LO69 expressing root tissue by CRW is likely to result in activation of lysine oxidase by proteolysis and subsequent insecticidal activity when the tedanalactam synthase protein is also present. […] The absence of LO activity in the proenzyme sample was confirmed by direct enzymatic assays just prior to exposure to insects.

[5] = Lysine oxidase enzymatic assay of enzyme preparations; assay type: biochemical; conditions: purified lysine oxidase
Protocol: F22844 was identified taxonomically as a Trichoderma species.
as §2

[6] = test system: proteases present in the midgut of southern corn rootworm; test: Activation of LO69 proenzyme by midgut extract; assay type: biochemical
Text: The lysine oxidase gene encodes a 69 kDa proenzyme which is N-terminally cleaved when expressed in Trichoderma or Saccharomyces to yield a mature and enzymatically active protein of approximately 60 kDa. To determine if the lysine oxidase-69 (LO69) proenzyme (Seq ID NO: 46) expressed in corn protoplasts can be activated by the proteases present in the midgut of southern corn rootworm, midguts were dissected from late instar larvae and the proteases extracted. Protease activity assays confirmed the presence of proteases in this extract. This extract and appropriate controls were incubated for about 22 hours at 25° C. with extracts from protoplasts electroporated with pMON25040 (i.e. the CaMV35S promoter and hsp70 intron fused to the 1.9 kb lysine oxidase gene encoding the Mr 69,000 proprotein, SEQ ID NO:45) and non-electroporated controls and assayed for lysine oxidase activity.

[7] = Table 2a, Mr 56,000 10 μg/mL, Mr 50,000 1.5 μg/mL, alone or combined, NSS = not statistically significant
[8] = Table 3, native PAGE purified, Mr 56,000 9.7 μg/mL, Mr 50,000 2.5 μg/mL, alone or combined
[9] = second table headed TABLE 2a, Mr 56,000 10 μg/mL, Mr 50,000 1.5 μg/mL, NSS = not statistically significant
[10] = each protein at 2 ppm, of larval weight vs control
[11] = single protein at 10 ppm, 50 kD activity ascribed to low level LO contamination

N[C@@H](Cc1ccccc1)C(=O)O [Phenylalanine]
Relative activity (%) (F22844 lysine oxidase): 6.6%
Relative activity (%) (T. viride lysine oxidase [1]): 8.3%

NCCCC[C@H](N)C(=O)O [lysine]
Km [2]: 26 µM
Km (T. viride lysine oxidase [3]): 40 µM

N=C(N)NCCC[C@H](N)C(=O)O [Arginine]
Relative activity (%) (F22844 lysine oxidase): 2.6%
Relative activity (%) (T. viride lysine oxidase [1]): 6.1%

NCCCC[C@H](N)C(=O)O [Lysine]
Relative activity (%) (F22844 lysine oxidase): 100.0%
substrate of Mr 50,000 protein (Mr 50,000 protein): not substrates
Relative activity (%) (T. viride lysine oxidase [1]): 100%

O=C(O)C1CCCC=N1 (centres unmarked) [P2C, Δ^1-piperideine-2-carboxylate]
substrate of Mr 50,000 protein (Mr 50,000 protein): catalyses the conversion of Δ^1-piperideine-2-carboxylate (P2C) to product I

NCCC[C@H](N)C(=O)O [Ornithine]
Relative activity (%) (F22844 lysine oxidase): 10.8%
Relative activity (%) (T. viride lysine oxidase [1]): 18.2%

O=C(O)C1CCCCN1 (centres unmarked) [Pipecolic acid]
substrate of Mr 50,000 protein (Mr 50,000 protein): not substrates

N[C@@H](Cc1c[nH]cn1)C(=O)O [Histidine]
Relative activity (%) (F22844 lysine oxidase): 5.0%
Relative activity (%) (T. viride lysine oxidase [1]): 3.8%

B1: Mr 50,000: Mr 50,000 protein from F22844, tedanalactam synthase converting Δ1-piperideine-2-carboxylate to tedanalactam (protein)
chain: MADEIYDVVVIGGGPIGLAAAYEAAKEGAKVVVLEQNNFFNHAGSSNDLARMFRTMYTEDYMADLAKEALALWDDLERDSGTPLRWMSGLLNFGDKDYGGDTPEGTLLGPIANLDRLGMTYQELSAKEIEARYPFKNLDPKYIGLFAPDNGLINVQLLLRTLYKLSLDYGATAKQHTKVQAIKPSNHSHYAWDVHAIRHETEAAVFKAKKIIIASGAYVNHVLKPSFDISLDLDIWEMVFSYFNCNAGPKGTIFPSMWFQFAPDKNGRSQLFYGFPALPWGPPNLARIAVDAATRRIKDPNERLTSTINPEDIADTQEFIRNHCVNVDPTIPALTSSCLQTNVFDNMFVLDFVPEKYLNGGAKDSVVVFTAGWAMKFVPMIGKALADMALKGSSPYARKEFAITRTDSATGKGIIVEGGSENRSVKSSAFVFYSPGIRFFVCRLP
% Stunting (southern corn rootworm; [7]): NSS
% Stunting (southern corn rootworm; [8]): NSS
Mean larval wt. (mg) (+SEM) (southern corn rootworm; alone or combined): 0.52 ± 0.03 mg
# of survivors (southern corn rootworm; alone or combined): 80
% Stunting (southern corn rootworm; [9]): NSS
# of survivors (corn rootworm): 43
Mean larval wt. (mg) (±SEM) (corn rootworm): 0.80 ± 0.07 mg
Av. Wght ([4]; each protein at 2 ppm): 3.5 mg
Surv ([4]; each protein at 2 ppm, n 18): 18
% inhibition [4, 10]: 0%
Surv ([4]; single protein at 10 ppm): 18
% inhibition [4, 11]: 39%
Av. Wght ([4]; single protein at 10 ppm): 1.5 mg

B2: L-lysine oxidase (protein)
chain: MDNVDFAESVRTRWARRLIREKVAKELNILTERLGEVPGIPPPNEGRFLGGGYSHDNLPSDPLYSSIKPALLKEAPRAEEELPPRKVCIVGAGVSGLYIAMILDDLKIPNLTYDIFESSSRTGGRLYTHHFTDAKHDYYDIGAMRYPDIPSMKRTFNLFKRTGMPLIKYYLDGENTPQLYNNHFFAKGVSDPYMVSVANGGTVPDDVVDSVGEKLQQAFGYYKEKLAEDFDKGFDELMLVDDMTTREYLKRGGPKGEAPKYDFFAIQWMETQNTGTNLFDQAFSESVIDSFDFDNPTKPEWYCIEGGTSLLVDAMKETLVHKVQNNKRVDAISIDLDAPDDGNMSVRIGGKDHSGYSTVFNTTALGCLDRMDLRGLNLHPTQADAIRCLHYDNSTKVALKFSYPWWIKDCGITCGGAASTDLPLRTCVYPSYNLDDTGEAVLLASYTWSQDATRIGSLVKDAPPQPPKEDELVELILQNLARLHAEHMTYEKIKEAYTGVYHAYCWANDPNVGGAFALFGPGQFSNLYPYLMRPAAGGKFHIVGEASSVHHAWIIGSLESAYTAVYQFLYKYKMWDYLRLLLERWQYGLQELETGKHGTAHLQFILGSLPKEYQVKI
notes: Mr 56,000 protein purified from Trichoderma sp; F22844 culture filtrate, identified as L-lysine oxidase
% Stunting (southern corn rootworm; [7]): NSS
% Stunting (southern corn rootworm; [8]): NSS
Mean larval wt. (mg) (+SEM) (southern corn rootworm; alone or combined): 0.48 ± 0.04 mg
# of survivors (southern corn rootworm; alone or combined): 46
% Stunting (southern corn rootworm; [9]): NSS
specific activity [5]: 37 U/mg protein
# of survivors (corn rootworm): 38
Mean larval wt. (mg) (±SEM) (corn rootworm): 0.76 ± 0.06 mg

B3: LO69: 69 kDa lysine oxidase proenzyme (SEQ ID NO: 46); corn protoplast extract in Table 20, purified from Saccharomyces cerevisiae in Table 21 (protein)
chain: B2 chain
Lysine oxidase Sp. Act. ([6]; BSA): 12 U/μg protein
Fold Difference ([6]; BSA, relative to heated gut extract): 1.2
Lysine oxidase Sp. Act. ([6]; corn protoplast extract, gut extract, about 22 hours at 25° C.): 1292 U/μg protein
Lysine oxidase Sp. Act. ([6]; gut extract, protease inhibitor): 997 U/μg protein
Fold Difference ([6]; gut extract, protease inhibitor, relative to heated gut extract): 97
Fold Difference ([6]; gut extract, relative to LO69 with heated gut extract): 130
Lysine oxidase Sp. Act. ([6]; heated gut extract): 10 U/μg protein
Fold Difference ([6]; heated gut extract (reference)): 0
Av. Wght ([4]; each protein at 2 ppm): 2.1 mg
Surv ([4]; each protein at 2 ppm, n 18): 17
% inhibition [4, 10]: 20%
Surv ([4]; single protein at 10 ppm): 17
% inhibition [4, 11]: 0%
Av. Wght ([4]; single protein at 10 ppm): 3.3 mg
% inhibition ([4]; single protein at 20 ppm): 0%
Av. Wght ([4]; single protein at 20 ppm): 2.8 mg
Surv ([4]; single protein at 20 ppm, n 18): 18

From US6372211B1, “Methods and compositions for controlling insects” (Monsanto Technolgy LLC, priority 1997, dated 2002)
